Results reported in patent publication US11795460B2, “Compositions and methods for TTR gene editing and treating ATTR amyloidosis” (Intellia Therapeutics, Inc., priority 2017, dated 2023).
Strand notation (5' to 3'): a small letter for the sugar, then the base; units joined by * are phosphorothioate-linked, units joined directly phosphodiester-linked; [ ] holds rarer units or linkages, { } end groups; capitals alone tell only the bases. m = 2'-O-methyl; r = 2'-OH (RNA)

B1: G000568: TTR sgRNA modified sequence, Human, SEQ ID No. 110; guide sequence of CR003391 (nucleic acid)
guide: mG*mG*mC*rUrGrUrCrGrUrCrArCrCrArArUrCrCrCrArGrUrUrUrUrArGrAmGmCmUmAmGmAmAmAmUmAmGmCrArArGrUrUrArArArArUrArArGrGrCrUrArGrUrCrCrGrUrUrArUrCrAmAmCmUmUmGmAmAmAmAmAmGmUmGmGmCmAmCmCmGmAmGmUmCmGmGmUmGmCmU*mU*mU*mU
B2: G000499: TTR sgRNA modified sequence, Human, SEQ ID No. 106; guide sequence of CR005303 (nucleic acid)
guide: mU*mG*mA*rArUrCrCrArArGrUrGrUrCrCrUrCrUrGrArGrUrUrUrUrArGrAmGmCmUmAmGmAmAmAmUmAmGmCrArArGrUrUrArArArArUrArArGrGrCrUrArGrUrCrCrGrUrUrArUrCrAmAmCmUmUmGmAmAmAmAmAmGmUmGmGmCmAmCmCmGmAmGmUmCmGmGmUmGmCmU*mU*mU*mU
B3: G000502: TTR Cyno specific sgRNA modified sequence, SEQ ID No. 114; guide sequence of CR000689; cross homologous between mouse and cyno (nucleic acid)
guide: mA*mC*mA*rCrArArArUrArCrCrArGrUrCrCrArGrCrGrGrUrUrUrUrArGrAmGmCmUmAmGmAmAmAmUmAmGmCrArArGrUrUrArArArArUrArArGrGrCrUrArGrUrCrCrGrUrUrArUrCrAmAmCmUmUmGmAmAmAmAmAmGmUmGmGmCmAmCmCmGmAmGmUmCmGmGmUmGmCmU*mU*mU*mU
B4: G000489: TTR sgRNA modified sequence, Human, SEQ ID No. 96; guide sequence of CR003344 (nucleic acid)
guide: mU*mU*mU*rGrArCrCrArUrCrArGrArGrGrArCrArCrUrGrUrUrUrUrArGrAmGmCmUmAmGmAmAmAmUmAmGmCrArArGrUrUrArArArArUrArArGrGrCrUrArGrUrCrCrGrUrUrArUrCrAmAmCmUmUmGmAmAmAmAmAmGmUmGmGmCmAmCmCmGmAmGmUmCmGmGmUmGmCmU*mU*mU*mU
B5: G000483: TTR sgRNA modified sequence, Human, SEQ ID No. 90; guide sequence of CR005298 (nucleic acid)
guide: mU*mC*mC*rArCrUrCrArUrUrCrUrUrGrGrCrArGrGrArGrUrUrUrUrArGrAmGmCmUmAmGmAmAmAmUmAmGmCrArArGrUrUrArArArArUrArArGrGrCrUrArGrUrCrCrGrUrUrArUrCrAmAmCmUmUmGmAmAmAmAmAmGmUmGmGmCmAmCmCmGmAmGmUmCmGmGmUmGmCmU*mU*mU*mU
B6: G000480: TTR sgRNA modified sequence, Human, SEQ ID No. 87; guide sequence of CR003353 (nucleic acid)
guide: mA*mA*mA*rGrGrCrUrGrCrUrGrArUrGrArCrArCrCrUrGrUrUrUrUrArGrAmGmCmUmAmGmAmAmAmUmAmGmCrArArGrUrUrArArArArUrArArGrGrCrUrArGrUrCrCrGrUrUrArUrCrAmAmCmUmUmGmAmAmAmAmAmGmUmGmGmCmAmCmCmGmAmGmUmCmGmGmUmGmCmU*mU*mU*mU
B7: G000570: TTR sgRNA modified sequence, Human, SEQ ID No. 111; guide sequence of CR003347 (nucleic acid)
guide: mC*mA*mU*rUrGrArUrGrGrCrArGrGrArCrUrGrCrCrUrGrUrUrUrUrArGrAmGmCmUmAmGmAmAmAmUmAmGmCrArArGrUrUrArArArArUrArArGrGrCrUrArGrUrCrCrGrUrUrArUrCrAmAmCmUmUmGmAmAmAmAmAmGmUmGmGmCmAmCmCmGmAmGmUmCmGmGmUmGmCmU*mU*mU*mU
B8: G000484: TTR sgRNA modified sequence, Human, SEQ ID No. 91; guide sequence of CR003367 (nucleic acid)
guide: mA*mG*mA*rCrArCrCrArArArUrCrUrUrArCrUrGrGrArGrUrUrUrUrArGrAmGmCmUmAmGmAmAmAmUmAmGmCrArArGrUrUrArArArArUrArArGrGrCrUrArGrUrCrCrGrUrUrArUrCrAmAmCmUmUmGmAmAmAmAmAmGmUmGmGmCmAmCmCmGmAmGmUmCmGmGmUmGmCmU*mU*mU*mU
B9: G000481: TTR sgRNA modified sequence, Human, SEQ ID No. 88; guide sequence of CR003345 (nucleic acid)
guide: mU*mC*mU*rArGrArArCrUrUrUrGrArCrCrArUrCrArGrGrUrUrUrUrArGrAmGmCmUmAmGmAmAmAmUmAmGmCrArArGrUrUrArArArArUrArArGrGrCrUrArGrUrCrCrGrUrUrArUrCrAmAmCmUmUmGmAmAmAmAmAmGmUmGmGmCmAmCmCmGmAmGmUmCmGmGmUmGmCmU*mU*mU*mU
B10: G000572: TTR sgRNA modified sequence, Human, SEQ ID No. 113; guide sequence of CR003385 (nucleic acid)
guide: mC*mC*mC*rCrUrArCrUrCrCrUrArUrUrCrCrArCrCrArGrUrUrUrUrArGrAmGmCmUmAmGmAmAmAmUmAmGmCrArArGrUrUrArArArArUrArArGrGrCrUrArGrUrCrCrGrUrUrArUrCrAmAmCmUmUmGmAmAmAmAmAmGmUmGmGmCmAmCmCmGmAmGmUmCmGmGmUmGmCmU*mU*mU*mU
B11: G000482: TTR sgRNA modified sequence, Human, SEQ ID No. 89; guide sequence of CR003365 (nucleic acid)
guide: mU*mG*mU*rArGrArArGrGrGrArUrArUrArCrArArArGrGrUrUrUrUrArGrAmGmCmUmAmGmAmAmAmUmAmGmCrArArGrUrUrArArArArUrArArGrGrCrUrArGrUrCrCrGrUrUrArUrCrAmAmCmUmUmGmAmAmAmAmAmGmUmGmGmCmAmCmCmGmAmGmUmCmGmGmUmGmCmU*mU*mU*mU
B12: G000494: TTR sgRNA modified sequence, Human, SEQ ID No. 101; guide sequence of CR003360 (nucleic acid)
guide: mG*mU*mG*rArGrUrCrUrGrGrArGrArGrCrUrGrCrArUrGrUrUrUrUrArGrAmGmCmUmAmGmAmAmAmUmAmGmCrArArGrUrUrArArArArUrArArGrGrCrUrArGrUrCrCrGrUrUrArUrCrAmAmCmUmUmGmAmAmAmAmAmGmUmGmGmCmAmCmCmGmAmGmUmCmGmGmUmGmCmU*mU*mU*mU
B13: G000490: TTR sgRNA modified sequence, Human, SEQ ID No. 97; guide sequence of CR003366 (nucleic acid)
guide: mA*mA*mA*rUrArGrArCrArCrCrArArArUrCrUrUrArCrGrUrUrUrUrArGrAmGmCmUmAmGmAmAmAmUmAmGmCrArArGrUrUrArArArArUrArArGrGrCrUrArGrUrCrCrGrUrUrArUrCrAmAmCmUmUmGmAmAmAmAmAmGmUmGmGmCmAmCmCmGmAmGmUmCmGmGmUmGmCmU*mU*mU*mU
B14: G000488: TTR sgRNA modified sequence, Human, SEQ ID No. 95; guide sequence of CR003346 (nucleic acid)
guide: mA*mA*mA*rGrUrUrCrUrArGrArUrGrCrUrGrUrCrCrGrGrUrUrUrUrArGrAmGmCmUmAmGmAmAmAmUmAmGmCrArArGrUrUrArArArArUrArArGrGrCrUrArGrUrCrCrGrUrUrArUrCrAmAmCmUmUmGmAmAmAmAmAmGmUmGmGmCmAmCmCmGmAmGmUmCmGmGmUmGmCmU*mU*mU*mU
B15: G000493: TTR sgRNA modified sequence, Human, SEQ ID No. 100; guide sequence of CR003368 (nucleic acid)
guide: mA*mA*mG*rUrGrCrCrUrUrCrCrArGrUrArArGrArUrUrGrUrUrUrUrArGrAmGmCmUmAmGmAmAmAmUmAmGmCrArArGrUrUrArArArArUrArArGrGrCrUrArGrUrCrCrGrUrUrArUrCrAmAmCmUmUmGmAmAmAmAmAmGmUmGmGmCmAmCmCmGmAmGmUmCmGmGmUmGmCmU*mU*mU*mU
B16: G000571: TTR sgRNA modified sequence, Human, SEQ ID No. 112; guide sequence of CR005301 (nucleic acid)
guide: mG*mU*mC*rArCrArGrArArArCrArCrUrCrArCrCrGrUrGrUrUrUrUrArGrAmGmCmUmAmGmAmAmAmUmAmGmCrArArGrUrUrArArArArUrArArGrGrCrUrArGrUrCrCrGrUrUrArUrCrAmAmCmUmUmGmAmAmAmAmAmGmUmGmGmCmAmCmCmGmAmGmUmCmGmGmUmGmCmU*mU*mU*mU
B17: G000500: TTR sgRNA modified sequence, Human, SEQ ID No. 107; guide sequence of CR003337 (nucleic acid)
guide: mC*mC*mA*rGrUrCrCrArGrCrArArGrGrCrArGrArGrGrGrUrUrUrUrArGrAmGmCmUmAmGmAmAmAmUmAmGmCrArArGrUrUrArArArArUrArArGrGrCrUrArGrUrCrCrGrUrUrArUrCrAmAmCmUmUmGmAmAmAmAmAmGmUmGmGmCmAmCmCmGmAmGmUmCmGmGmUmGmCmU*mU*mU*mU

Test system: TTR
Assay: EC50 and maximum editing in primary human hepatocytes treated with LNP formulated U-depleted Spy Cas9 mRNA and sgRNAs (Tables 19, 21)
Type: cell-based
Set-up: key: % of sequence reads with indels or substitutions over total reads
Conditions: dose response
Method: Primary liver hepatocytes. Primary human liver hepatocytes (PHH) and primary cynomolgus liver hepatocytes (PCH) (Gibco) were cultured per the manufacturer's protocol (Invitrogen, protocol 11.28.2012). In brief, the cells were thawed and resuspended in hepatocyte thawing medium with supplements (Gibco, Cat. CM7000) followed by centrifugation at 100 g for 10 minutes for human and 80 g for 4 minutes for cyno. The supernatant was discarded and the pelleted cells resuspended in hepatocyte plating medium plus supplement pack (Invitrogen, Cat. A1217601 and CM3000). Cells were counted and plated on Bio-coat collagen I coated 96-well plates (ThermoFisher, Cat. 877272) at a density of 33,000 cells/well for human or 60,000 cells/well for cyno (or 65,000 cells/well when assaying effects on TTR protein, described further below). Plated cells were allowed to settle and adhere for 6 or 24 hours in a tissue culture incubator at 37° C. and 5% CO2 atmosphere. After incubation cells were checked for monolayer formation and media was replaced with hepatocyte culture medium with serum-free supplement pack (Invitrogen, Cat. A1217601 and CM4000).
For LNPs prepared using the cross-flow technique, the LNPs were formed by impinging jet mixing of the lipid in ethanol with two volumes of RNA solutions and one volume of water. The lipid in ethanol is mixed through a mixing cross with the two volumes of RNA solution. A fourth stream of water is mixed with the outlet stream of the cross through an inline tee. (See WO2016010840 FIG. 2.) The LNPs were held for 1 hour at room temperature, and further diluted with water (approximately 1:1 v/v). Diluted LNPs were concentrated using tangential flow filtration on a flat sheet cartridge (Sartorius, 100 kD MWCO) and then buffer exchanged by diafiltration into 50 mM Tris, 45 mM NaCl, 5% (w/v) sucrose, pH 7.5 (TSS). Alternatively, the final buffer exchange into TSS was completed with PD-10 desalting columns (GE). If required, formulations were concentrated by centrifugation with Amicon 100 kDa centrifugal filters (Millipore). The resulting mixture was then filtered using a 0.2 μm sterile filter. The final LNP was stored at 4° C. or −80° C. until further use.
To quantitatively determine the efficiency of editing at the target location in the genome, sequencing was utilized to identify the presence of insertions and deletions introduced by gene editing.
Primers were designed around the target site within the gene of interest (e.g. TTR), and the genomic area of interest was amplified.
Additional PCR was performed per the manufacturer's protocols (Illumina) to add chemistry for sequencing. The amplicons were sequenced on an Illumina MiSeq instrument. The reads were aligned to a reference genome (e.g., the human reference genome (hg38), the cynomologus reference genome (mf5), the rat reference genome (rn6), or the mouse reference genome (mm10)) after eliminating those having low quality scores. The resulting files containing the reads were mapped to the reference genome (BAM files), where reads that overlapped the target region of interest were selected and the number of wild type reads versus the number of reads which contain an insertion, substitution, or deletion was calculated.
The editing percentage (e.g., the “editing efficiency” or “percent editing” or “indel frequency”) is defined as the total number of sequence reads with insertions/deletions (“indels”) or substitutions over the total number of sequence reads, including wild type.
Lipid nanoparticle formulations of modified sgRNAs targeting human TTR and the cyno matched sgRNA sequences were tested on primary human hepatocytes and primary cyno hepatocytes in a dose response curve. Primary human and cyno hepatocytes were plated as described in Example 1. Both cell lines were incubated at 37° C., 5% CO2 for 24 hours prior to treatment with LNPs. […]

[1] = Table 19, LNP with U-depleted Spy Cas9 mRNA and human specific sgRNAs

Molecule | Max Editing [1] | Max Editing (Table 21, LNP with U-depleted Spy Cas9 mRNA and cyno specific sgRNAs)
B1 | 95.72 | –
B2 | 96.31 | –
B3 | – | 91.50
B4 | 86.33 | –
B5 | 77.39 | –
B6 | 98.69 | –
B7 | 98.22 | –
B8 | 94.14 | –
B9 | 87.05 | –
B10 | 97.94 | –
B11 | 97.02 | –
B12 | 75.70 | –
B13 | 94.16 | –
B14 | 95.83 | –
B15 | 63.95 | –
B16 | 71.28 | –
B17 | 88.70 | –
